From the RNAGym collection of RNA variant scans (doi:10.7554/elife.80360)

B1: Twister Ribozyme (parent)
chain: AACACUGCCAAUGCCGGUCCCAAGCCCGGAUAAAAGUGGAGGGGGCGG

Variants of: B1
Assay: self-cleavage, relative activity (ratio to wild type); higher = more cleavage; co-transcriptional
AACACUGCCAAUGCCGGUCCCAAGCCCGGAUAAAAGUGGAGGGUGCGG [G44U] showed a self-cleavage of 0.974.
For AACACUGCCAAUGCCGGUCCCAAGCCCGGAUAAAAGUGGAGGGAGCGG [G44A], the self-cleavage was 0.959.
With AACACUGCCAAUGCCGGUCCCAAGCCCGGAUAAAAGUGGAGGGCGCGG [G44C] the self-cleavage was 0.971.
In the case of AACACUGCCAAUGCCGGUCCCAAGCCCGGAUAAAAGUGGAGGGGGCCA [G47C G48A], the self-cleavage is reported as 0.666.
AACACUGCCAAUGCCGGUCCCAAGCCCGGAUAAAAGUGGAGGGGGUCG [C46U G47C] gave a self-cleavage of 1.6.
For AACACUGCCAAUGCCGGUCCCAAGCCCGGAUAAAAGUGGAGGGGGUAG [C46U G47A], the self-cleavage was 0.874.
Variant AACACUGCCAAUGCCGGUCCCAAGCCCGGAUAAAAGUGGAGGGCGAGG [G44C C46A] has a self-cleavage of 0.28.
For AACACUGCCAAUGCCGGUCCCAAGCCCGGAUAAAAGUGGAGGGCGGGG [G44C C46G], the self-cleavage was 0.254.
Work on AACACUGCCAAUGCCGGUCCCAAGCCCGGAUAAAAGUGGAGGGGCCAG [G45C G47A] yielded a self-cleavage of 0.305.
Variant AACACUGCCAAUGCCGGUCCCAAGCCCGGAUAAAAGUGGAGGGGACGG [G45A] has a self-cleavage of 0.939.
AACACUGCCAAUGCCGGUCCCAAGCCCGGAUAAAAGUGGAGGGGUCGG [G45U] showed a self-cleavage of 0.902.
AACACUGCCAAUGCCGGUCCCAAGCCCGGAUAAAAGUGGAGGGGCCGG [G45C] gave a self-cleavage of 0.645.
AACACUGCCAAUGCCGGUCCCAAGCCCGGAUAAAAGUGGAGGUGGUGG [G43U C46U] gave a self-cleavage of 0.426.
AACACUGCCAAUGCCGGUCCCAAGCCCGGAUAAAAGUGGAGGUGGAGG [G43U C46A] showed a self-cleavage of 0.271.
In the case of AACACUGCCAAUGCCGGUCCCAAGCCCGGAUAAAAGUGGAGGUGGGGG [G43U C46G], the self-cleavage is reported as 0.409.
AACACUGCCAAUGCCGGUCCCAAGCCCGGAUAAAAGUGGAGGGGUCUG [G45U G47U] gave a self-cleavage of 0.386.
AACACUGCCAAUGCCGGUCCCAAGCCCGGAUAAAAGUGGAGGGGUCCG [G45U G47C] gave a self-cleavage of 0.435.
In the case of AACACUGCCAAUGCCGGUCCCAAGCCCGGAUAAAAGUGGAGGGGGCAC [G47A G48C], the self-cleavage is reported as 0.942.
With AACACUGCCAAUGCCGGUCCCAAGCCCGGAUAAAAGUGGAGGGGGCAA [G47A G48A] the self-cleavage was 1.31.
In the case of AACACUGCCAAUGCCGGUCCCAAGCCCGGAUAAAAGUGGAGGUUGCGG [G43U G44U], the self-cleavage is reported as 0.398.
Variant AACACUGCCAAUGCCGGUCCCAAGCCCGGAUAAAAGUGGAGGUAGCGG [G43U G44A] has a self-cleavage of 0.722.
AACACUGCCAAUGCCGGUCCCAAGCCCGGAUAAAAGUGGAGGUCGCGG [G43U G44C] gave a self-cleavage of 0.767.
Work on AACACUGCCAAUGCCGGUCCCAAGCCCGGAUAAAAGUGGAGGGGGCCG [G47C] yielded a self-cleavage of 0.706.
AACACUGCCAAUGCCGGUCCCAAGCCCGGAUAAAAGUGGAGGGGGCAG [G47A] showed a self-cleavage of 0.952.
Work on AACACUGCCAAUGCCGGUCCCAAGCCCGGAUAAAAGUGGAGGGGGCUG [G47U] yielded a self-cleavage of 0.965.
Work on AACACUGCCAAUGCCGGUCCCAAGCCCGGAUAAAAGUGGAGGGUGGGG [G44U C46G] yielded a self-cleavage of 0.728.
In the case of AACACUGCCAAUGCCGGUCCCAAGCCCGGAUAAAAGUGGAGGGUGAGG [G44U C46A], the self-cleavage is reported as 0.476.
AACACUGCCAAUGCCGGUCCCAAGCCCGGAUAAAAGUGGAGGGUGUGG [G44U C46U] showed a self-cleavage of 1.02.
AACACUGCCAAUGCCGGUCCCAAGCCCGGAUAAAAGUGGAGGGGGGGG [C46G] showed a self-cleavage of 0.951.
In the case of AACACUGCCAAUGCCGGUCCCAAGCCCGGAUAAAAGUGGAGGGGGUGG [C46U], the self-cleavage is reported as 0.958.
Work on AACACUGCCAAUGCCGGUCCCAAGCCCGGAUAAAAGUGGAGGGGGAGG [C46A] yielded a self-cleavage of 0.927.
AACACUGCCAAUGCCGGUCCCAAGCCCGGAUAAAAGUGGAGGGGGCGA [G48A] showed a self-cleavage of 0.986.
For AACACUGCCAAUGCCGGUCCCAAGCCCGGAUAAAAGUGGAGGGGGCGU [G48U], the self-cleavage was 1.06.
In the case of AACACUGCCAAUGCCGGUCCCAAGCCCGGAUAAAAGUGGAGGGGGCGC [G48C], the self-cleavage is reported as 1.15.
AACACUGCCAAUGCCGGUCCCAAGCCCGGAUAAAAGUGGAGGGCGCUG [G44C G47U] gave a self-cleavage of 0.244.
Work on AACACUGCCAAUGCCGGUCCCAAGCCCGGAUAAAAGUGGAGGGAGCCG [G44A G47C] yielded a self-cleavage of 0.828.
AACACUGCCAAUGCCGGUCCCAAGCCCGGAUAAAAGUGGAGGGAGCUG [G44A G47U] gave a self-cleavage of 0.922.
Work on AACACUGCCAAUGCCGGUCCCAAGCCCGGAUAAAAGUGGAGGGCACGG [G44C G45A] yielded a self-cleavage of 0.762.
Variant AACACUGCCAAUGCCGGUCCCAAGCCCGGAUAAAAGUGGAGGGGAUGG [G45A C46U] has a self-cleavage of 0.848.
In the case of AACACUGCCAAUGCCGGUCCCAAGCCCGGAUAAAAGUGGAGGGGAAGG [G45A C46A], the self-cleavage is reported as 0.714.
Variant AACACUGCCAAUGCCGGUCCCAAGCCCGGAUAAAAGUGGAGGGGAGGG [G45A C46G] has a self-cleavage of 0.856.
AACACUGCCAAUGCCGGUCCCAAGCCCGGAUAAAAGUGGAGGGAGCGA [G44A G48A] showed a self-cleavage of 0.927.
In the case of AACACUGCCAAUGCCGGUCCCAAGCCCGGAUAAAAGUGGAGGGGGCUA [G47U G48A], the self-cleavage is reported as 0.819.
AACACUGCCAAUGCCGGUCCCAAGCCCGGAUAAAAGUGGAGGGGGCUU [G47U G48U] showed a self-cleavage of 1.57.
AACACUGCCAAUGCCGGUCCCAAGCCCGGAUAAAAGUGGAGGUGGCAG [G43U G47A] gave a self-cleavage of 0.201.
In the case of AACACUGCCAAUGCCGGUCCCAAGCCCGGAUAAAAGUGGAGGUGGCUG [G43U G47U], the self-cleavage is reported as 0.137.
Work on AACACUGCCAAUGCCGGUCCCAAGCCCGGAUAAAAGUGGAGGUGGCCG [G43U G47C] yielded a self-cleavage of 0.177.
For AACACUGCCAAUGCCGGUCCCAAGCCCGGAUAAAAGUGGAGGGGCGGG [G45C C46G], the self-cleavage was 1.61.
AACACUGCCAAUGCCGGUCCCAAGCCCGGAUAAAAGUGGAGGGGCAGG [G45C C46A] gave a self-cleavage of 0.564.
AACACUGCCAAUGCCGGUCCCAAGCCCGGAUAAAAGUGGAGGGUUCGG [G44U G45U] showed a self-cleavage of 0.922.
In the case of AACACUGCCAAUGCCGGUCCCAAGCCCGGAUAAAAGUGGAGGGUACGG [G44U G45A], the self-cleavage is reported as 0.825.
Work on AACACUGCCAAUGCCGGUCCCAAGCCCGGAUAAAAGUGGAGGGGGAGU [C46A G48U] yielded a self-cleavage of 0.889.
Variant AACACUGCCAAUGCCGGUCCCAAGCCCGGAUAAAAGUGGAGGGGGAGA [C46A G48A] has a self-cleavage of 0.837.
Work on AACACUGCCAAUGCCGGUCCCAAGCCCGGAUAAAAGUGGAGGGCGCGU [G44C G48U] yielded a self-cleavage of 0.225.
Variant AACACUGCCAAUGCCGGUCCCAAGCCCGGAUAAAAGUGGAGGGCGCGC [G44C G48C] has a self-cleavage of 0.225.
In the case of AACACUGCCAAUGCCGGUCCCAAGCCCGGAUAAAAGUGGAGGGGACGU [G45A G48U], the self-cleavage is reported as 0.917.
Variant AACACUGCCAAUGCCGGUCCCAAGCCCGGAUAAAAGUGGAGGGGACGA [G45A G48A] has a self-cleavage of 0.785.
Variant AACACUGCCAAUGCCGGUCCCAAGCCCGGAUAAAAGUGGAGGUGGCGU [G43U G48U] has a self-cleavage of 0.198.
Work on AACACUGCCAAUGCCGGUCCCAAGCCCGGAUAAAAGUGGAGGUGGCGA [G43U G48A] yielded a self-cleavage of 0.175.
In the case of AACACUGCCAAUGCCGGUCCCAAGCCCGGAUAAAAGUGGAGGUGGCGC [G43U G48C], the self-cleavage is reported as 0.205.
Work on AACACUGCCAAUGCCGGUCCCAAGCCCGGAUAAAAGUGGAGGGGGGAG [C46G G47A] yielded a self-cleavage of 0.818.
AACACUGCCAAUGCCGGUCCCAAGCCCGGAUAAAAGUGGAGGGGGGUG [C46G G47U] gave a self-cleavage of 0.728.
Variant AACACUGCCAAUGCCGGUCCCAAGCCCGGAUAAAAGUGGAGGGUGCGC [G44U G48C] has a self-cleavage of 0.427.
Work on AACACUGCCAAUGCCGGUCCCAAGCCCGGAUAAAAGUGGAGGGUGCGU [G44U G48U] yielded a self-cleavage of 0.545.
For AACACUGCCAAUGCCGGUCCCAAGCCCGGAUAAAAGUGGAGGGGUAGG [G45U C46A], the self-cleavage was 0.595.
With AACACUGCCAAUGCCGGUCCCAAGCCCGGAUAAAAGUGGAGGGGGUGU [C46U G48U] the self-cleavage was 1.01.
AACACUGCCAAUGCCGGUCCCAAGCCCGGAUAAAAGUGGAGGGGGUGA [C46U G48A] showed a self-cleavage of 0.885.
AACACUGCCAAUGCCGGUCCCAAGCCCGGAUAAAAGUGGAGGGACCGG [G44A G45C] showed a self-cleavage of 0.535.
AACACUGCCAAUGCCGGUCCCAAGCCCGGAUAAAAGUGGAGGGAACGG [G44A G45A] gave a self-cleavage of 0.906.
AACACUGCCAAUGCCGGUCCCAAGCCCGGAUAAAAGUGGAGGGGUCGC [G45U G48C] showed a self-cleavage of 1.48.
AACACUGCCAAUGCCGGUCCCAAGCCCGGAUAAAAGUGGAGGGGUCGU [G45U G48U] showed a self-cleavage of 0.757.
For AACACUGCCAAUGCCGGUCCCAAGCCCGGAUAAAAGUGGAGGGGUCGA [G45U G48A], the self-cleavage was 0.757.
With AACACUGCCAAUGCCGGUCCCAAGCCCGGAUAAAAGUGGAGGUGACGG [G43U G45A] the self-cleavage was 0.614.
Work on AACACUGCCAAUGCCGGUCCCAAGCCCGGAUAAAAGUGGAGGUGUCGG [G43U G45U] yielded a self-cleavage of 0.358.
AACACUGCCAAUGCCGGUCCCAAGCCCGGAUAAAAGUGGAGGUGGCGG [G43U] showed a self-cleavage of 0.537.
AACACUGCCAAUGCCGGUCCCAAGCCCGGAUAAAAGUGGAGGGGACUG [G45A G47U] gave a self-cleavage of 0.701.
Work on AACACUGCCAAUGCCGGUCCCAAGCCCGGAUAAAAGUGGAGGGGACCG [G45A G47C] yielded a self-cleavage of 0.539.
With AACACUGCCAAUGCCGGUCCCAAGCCCGGAUAAAAGUGGAGGGUGCUG [G44U G47U] the self-cleavage was 0.783.
